± gives the half width of the 95% confidence interval.
assay: folding stability dG unfold from chymotrypsin proteolysis; higher = more stable
Method in brief: (§1)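 Designed mini-proteins (under 80 residues, no cysteine) in a PA-tagged cDNA display construct were digested with trypsin and chymotrypsin. Each protease was used at 11 concentrations (threefold dilutions) plus a no-protease condition, followed by sequencing. K50 was inferred by Bayesian fitting of sequencing counts, and unfolding free energy was derived against a sequence-predicted unfolded-state K50 and a shared folded-state K50, per protease or combined. Only designs with AlphaFold2 dimer inter-PAE above 15 were kept.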

Sequence	folding stability dG unfold [kcal/mol]
SAGGSAGGSAGGMFVRIEVDGKTILLEADSLEEALAAIRALLPPGEKVKVELVSEEELKSAGGSAGGSAGGS [r10_1167_TrROS_Hall]	3.04 ± 0.068
SAGGSAGGSAGIEIELNGKPVTIHPNPDGYYRVRFPGPGKSILIPGMPPDDIKDFAKELLSAGGSAGGSAGG [r11_1085_TrROS]	0.137 ± 0.15
SPDIEIEPMPNGSYMIEVPVPPDAESIEVPFPGNGRPVTIHRDPDKIHIFFNNPEQIEEIAEAIADGKPISA [r9_515_TrROS]	0.2 ± 0.21
SAGDALKEAAKPGEEVTVRLRLTLTFTTETFTDDDGRERTVETVTVTVELEARVVAVDPETGELVIELRSAG [r5_5_TrROS_Hall]	4.19 ± 0.14
SAGGSADPDSPYVIRFNKPYTTFSPDGTPIELTEDVLKRFKSEEEAKKAKEELEKKGAKVEPVEGSSAGGSA [r15_117_JUSTAS]	0.242 ± 0.31
SGPALEILRAASEEEGVPVLAEVVPDADGNPVIPAVVWSPEDIEAGELPGEVKEAPITVDGKTYRVVLFASA [r9_489_TrMRF]	-0.0942 ± 0.18
SAGGKKYVLIKVKVRVEKEVNGEKKEVELELEILVPVDEETGKTPEEKAKELAKKLPPEVTEVKIEPVSAGG [r13_335_TrROS_Hall]	2.86 ± 0.061
SGPTVTYKVPYTRDVAVPTVKIGAKVTTTTTVTKLPNGTLASTSTSADVELTLNLPPDTPLSPNYLSTGGSA [r9_277_JUSTAS]	-0.175 ± 0.38
SAGGKKKKPKKKIKIKIVKVEKKYDKKTGKLKEVRIEIEIEAESEEEAKKLAEELAKKLNIEVEVKKKSAGG [r13_606_TrROS_Hall]	2.44 ± 0.096
SAGGSAGGSAGGSGPSVVLVSLPDGSYIAFPSGADVNIEIPSSSSGARIVAVIPLSELSSAGGSAGGSAGGS [r4_122_TrMRF]	0.714 ± 0.024
SAGGSAGGSEEIKKAIEEALKKMKPGEEKEVTIEIYDKKTNKKIAKIKIRIRRKKDGKLEIEFSAGGSAGGS [r20_151_TrROS_Hall]	3.6 ± 0.19
SAGGSAGGSAGGYFIRINNGRTFPFPSPEDAEEIVKTIARPFGHPDMTIEIYRMPPEQFPSAGGSAGGSAGG [r7_839_TrROS]	-0.1 ± 0.24
SAGGSAGGSAGSGTMFDFGSASVETLEEDPNGRVLVKVTLPDSEYLLEIVKGELVKIEPRSAGGSAGGSAGG [r17_396_JUSTAS]	0.858 ± 0.059
SAGGSAGGSAGYTVSVSVETETLKYLDPETGELVEEETLVRVTITITPPPPAPPNLPENLSAGGSAGGSAGG [r17_493_TrROS_Hall]	2.76 ± 0.051
SAGGSAGGSTPMSVEEIVERIKEEKRKENPNETVEIEFTAELKGGPEGAPEGIYPVKIKVPPGKSAGGSAGG [r6_79_JUSTAS]	0.489 ± 0.071
SAGGMAEEVAEAVRDFFESQGLPAEVEPLSVHPNNLVVYRFRVPGYYALVVADPDNPVVVVTVYPLPSAGGS [r8_157_TrMRF]	3.45 ± 0.049
SEAEVEVEVLPGPDAVVVRVRLPGRDEVVELRVLDPHPGEGRVLVAVSPGDDDTVVVRDLSPEDIKALLASA [r9_1221_TrMRF]	0.973 ± 0.055
SAGGSAGGSAGGSEEEIKKLAAEGGSFTATIPVVTPDGKPVEKTVTVEVKTDPKTGKLVSAGGSAGGSAGGS [r10_346_JUSTAS]	0.906 ± 0.025
SGKVKVKVEIPIPFRPPDGKWMMMNIWVEAEVPVTPEDLNNGKPRIRPEALDEAKDKVREWMRDIFGEPISA [r9_629_TrROS]	1.74 ± 0.11
SAGPPPWMVIRIPFWVKVTPDDGIITIEFKIEIGNKEFKIKITIPIPPELADAPPGETIPIPIWIFIRPSAG [r5_714_TrROS]	5.13 ± 0.062
SNIKNIKRVEIYYNPENGWMPKIKVEYPGGEREFMFPPDQAEELLNWLQQKGLPMKITDVEYHPMPPDQMSA [r9_607_TrROS]	1.49 ± 0.048

assay: folding stability dG unfold (combined trypsin and chymotrypsin); higher = more stable
Method in brief: as §1

Sequence	folding stability dG unfold [kcal/mol]
SAMVTYDPEKGVFEAEIEVGGETLRVTVVRDPETGEVVAVVERPGSGEPVVLPLPFKSLSDVIRYAEEHSAG [r14_803_TrMRF]	2.36 ± 0.11
SAGGSAGGSAGPENKNYMVMEMTIDIWIPLPPNAKVVFDPDEGKWKYVPIKIPIRIVMPWSAGGSAGGSAGG [r11_257_TrROS]	3.2 ± 0.15
SAGGSAGGSYTVETSPVPPGGLLKTYTSPDGVVTTTLYSPDGTVGETTTTPVPPVVPPDPAAAASAGGSAGG [r6_239_JUSTAS]	0.921 ± 0.11
SAGGSMEVKVEVVKDEETKEYYVKVEIRDPKTKKTITLEYKVKEEDKEEALKKAKELAEELAKKGISAGGSA [r2_221_TrROS_Hall]	3.48 ± 0.1
SAGGSAGGPKEKKWYVMVHITWRDDGKERPRHFMFKSPEQVIEALEEQLPPDNIEIDVAVFPYKSAGGSAGG [r6_114_TrROS]	2.33 ± 0.086
SAGGATLTLKPGDEITLTLTVTVTVTNEDGSTSTFTTTVTLTLRIEPAPPPPPVTVERDADGNLRVTLSAGG [r13_401_TrROS_Hall]	2.48 ± 0.18
SAGGSAGGTIIIEVDTREDALEAARALAEALLPPGYRVEIVSVEEVDGRVYVAIEVRPVPEEELSAGGSAGG [r6_72_TrROS_Hall]	3.17 ± 0.12
SAGWYYIIIIKHDNKPIVFVIPPEGMPPEGIRDQISEMLGMPPDNVEIDDIVPFDDNQDAEEAVKEALDSAG [r5_900_TrROS]	2.09 ± 0.22
SPPETETYPIPNPEDGKPLMDITIERNPENGNWKVEIYWPGGKKKEVEFPPNETIPIDDLPPGFWVTITRSA [r9_1150_TrROS]	1.21 ± 0.16
SAMKYLVEVTADLGGPSVRYELDAESIEEAIEKVKEKLKPLFPDAPLKNITLTFHDPSSDETTTVNIVESAG [r14_54_JUSTAS]	3.49 ± 0.062
SAGGSAGGSFRIKEIEYKPPKGMIEVEIEFPNGRPIKIHINPDEGWDPIYFGGKPIFPIRIEPSAGGSAGGS [r12_789_TrROS]	0.534 ± 0.11
SAGGSAGGSGMKITSISKLPDGSYLVTTQDPGKGTPTTVPFSTPEEGKKLKKELEEKGGKVELSAGGSAGGS [r20_177_JUSTAS]	-0.0711 ± 0.18
SAGGMPEVKIKVEITEIKVDKETGKTVTIRIKSVEITTADGRKYRVEKEIRIRPDGSIEVKVKVEELPSAGG [r13_917_TrROS_Hall]	3.75 ± 0.12
SAGGKTVPIMFPFDSPDQIEEIIEELAKPGFDDVKPERIEPEPPPDGNYYFPVRIEVDPKNGKIEITFSAGG [r13_174_TrROS]	-0.0243 ± 0.29
SAGGGSMEEARRLIEEIAEEVKAKGVKVKVRITFGPDPKVLSIEIFSPDEPIVDNGGPGLVTLTFDIPSAGG [r13_693_JUSTAS]	2.55 ± 0.063
SMITLELTDPATGAKYTLTIDPSTGKAKVTRTPPTGPPVSGTGTIEGNTLTITLYEPSGKPLATLTLPLPSA [r9_665_JUSTAS]	5.6 ± 0.13
SAMVVIPFPKDTPPEVALEAVRKAVREAAENGIVPEKIVVVAHPDLVFLVDSLVEAGIPLENVEFVPSESAG [r14_589_TrMRF]	2.88 ± 0.052
SAGGSAGGMLLDEDGNLVVKIKLENGEEFEAKVTEIKDGKITVEVNGKKVEINAKDIELLPEDESAGGSAGG [r6_575_TrROS_Hall]	2.31 ± 0.096
SAGGSAGPSVTVDVTFHPGEGTVDVTVTTEGEVVYGKGTFLNPSTVLVEVYFPGSGKVATLTLPVTSAGGSA [r15_837_TrMRF]	1.73 ± 0.052
SAGGSAGGSAGGMVRITVEVDGKTYELVVEGMSLEEIEELLKKPNIKKAKVEPLSEEELKSAGGSAGGSAGG [r7_502_TrROS_Hall]	2.32 ± 0.098
SAGGSAGGSAGGPRTIYIPVKVEPDPNGKWKIDIEEIAKNLPDVKITSITPNYIKITFPASAGGSAGGSAGG [r11_771_TrROS]	1.08 ± 0.16

Sequence	folding stability dG unfold [kcal/mol]
SAGGSAGGSAGGMFVRIEVDGKTILLEADSLEEALAAIRALLPPGEKVKVELVSEEELKSAGGSAGGSAGGS [r10_1167_TrROS_Hall]	2.85 ± 0.047
SAGGSAGGSAGIEIELNGKPVTIHPNPDGYYRVRFPGPGKSILIPGMPPDDIKDFAKELLSAGGSAGGSAGG [r11_1085_TrROS]	0.0206 ± 0.1
SPDIEIEPMPNGSYMIEVPVPPDAESIEVPFPGNGRPVTIHRDPDKIHIFFNNPEQIEEIAEAIADGKPISA [r9_515_TrROS]	0.15 ± 0.15
SAGDALKEAAKPGEEVTVRLRLTLTFTTETFTDDDGRERTVETVTVTVELEARVVAVDPETGELVIELRSAG [r5_5_TrROS_Hall]	3.52 ± 0.18
SAGGSADPDSPYVIRFNKPYTTFSPDGTPIELTEDVLKRFKSEEEAKKAKEELEKKGAKVEPVEGSSAGGSA [r15_117_JUSTAS]	-0.159 ± 0.23
SGPALEILRAASEEEGVPVLAEVVPDADGNPVIPAVVWSPEDIEAGELPGEVKEAPITVDGKTYRVVLFASA [r9_489_TrMRF]	-0.0573 ± 0.086
SAGGKKYVLIKVKVRVEKEVNGEKKEVELELEILVPVDEETGKTPEEKAKELAKKLPPEVTEVKIEPVSAGG [r13_335_TrROS_Hall]	2.21 ± 0.31
SGPTVTYKVPYTRDVAVPTVKIGAKVTTTTTVTKLPNGTLASTSTSADVELTLNLPPDTPLSPNYLSTGGSA [r9_277_JUSTAS]	-0.0833 ± 0.2
SAGGKKKKPKKKIKIKIVKVEKKYDKKTGKLKEVRIEIEIEAESEEEAKKLAEELAKKLNIEVEVKKKSAGG [r13_606_TrROS_Hall]	2.01 ± 0.32
SAGGSAGGSAGGSGPSVVLVSLPDGSYIAFPSGADVNIEIPSSSSGARIVAVIPLSELSSAGGSAGGSAGGS [r4_122_TrMRF]	0.518 ± 0.11
SAGGSAGGSEEIKKAIEEALKKMKPGEEKEVTIEIYDKKTNKKIAKIKIRIRRKKDGKLEIEFSAGGSAGGS [r20_151_TrROS_Hall]	3.77 ± 0.19
SAGGSAGGSAGGYFIRINNGRTFPFPSPEDAEEIVKTIARPFGHPDMTIEIYRMPPEQFPSAGGSAGGSAGG [r7_839_TrROS]	0.0194 ± 0.18
SAGGSAGGSAGSGTMFDFGSASVETLEEDPNGRVLVKVTLPDSEYLLEIVKGELVKIEPRSAGGSAGGSAGG [r17_396_JUSTAS]	0.569 ± 0.12
SAGGSAGGSAGYTVSVSVETETLKYLDPETGELVEEETLVRVTITITPPPPAPPNLPENLSAGGSAGGSAGG [r17_493_TrROS_Hall]	2.65 ± 0.23
SAGGSAGGSTPMSVEEIVERIKEEKRKENPNETVEIEFTAELKGGPEGAPEGIYPVKIKVPPGKSAGGSAGG [r6_79_JUSTAS]	0.208 ± 0.12
SAGGMAEEVAEAVRDFFESQGLPAEVEPLSVHPNNLVVYRFRVPGYYALVVADPDNPVVVVTVYPLPSAGGS [r8_157_TrMRF]	3.08 ± 0.14
SEAEVEVEVLPGPDAVVVRVRLPGRDEVVELRVLDPHPGEGRVLVAVSPGDDDTVVVRDLSPEDIKALLASA [r9_1221_TrMRF]	1.5 ± 0.056
SAGGSAGGSAGGSEEEIKKLAAEGGSFTATIPVVTPDGKPVEKTVTVEVKTDPKTGKLVSAGGSAGGSAGGS [r10_346_JUSTAS]	0.791 ± 0.083
SGKVKVKVEIPIPFRPPDGKWMMMNIWVEAEVPVTPEDLNNGKPRIRPEALDEAKDKVREWMRDIFGEPISA [r9_629_TrROS]	1.45 ± 0.13
SAGPPPWMVIRIPFWVKVTPDDGIITIEFKIEIGNKEFKIKITIPIPPELADAPPGETIPIPIWIFIRPSAG [r5_714_TrROS]	4.81 ± 0.13
SNIKNIKRVEIYYNPENGWMPKIKVEYPGGEREFMFPPDQAEELLNWLQQKGLPMKITDVEYHPMPPDQMSA [r9_607_TrROS]	1.27 ± 0.18

Reference: the supplement of paper PMC12764529
